Results published in paper PMC7272049 (2020).
One block for each binder: values may come before it.

How the values were obtained:
Experiment in all cases: FACS
[1] = molecular target: WT mPD-L1 mCherry (mouse, UniProt Q9EP73 19-290)
[2] = molecular target: mPD-L1 G120D mCherry (mouse, UniProt Q9EP73 19-290, G120D)
[3] = molecular target: mPD-L1 Y56A mCherry (mouse, UniProt Q9EP73 19-290, Y56A)
[4] = molecular target: mPD-L1 R125A mCherry (mouse, UniProt Q9EP73 19-290, R125A)
[5] = molecular target: mPD-L1 G119D mCherry (mouse, UniProt Q9EP73 19-290, G119D)
Sequence of mPD-L1 G119D mCherry (Q9EP73 19-290 G119D): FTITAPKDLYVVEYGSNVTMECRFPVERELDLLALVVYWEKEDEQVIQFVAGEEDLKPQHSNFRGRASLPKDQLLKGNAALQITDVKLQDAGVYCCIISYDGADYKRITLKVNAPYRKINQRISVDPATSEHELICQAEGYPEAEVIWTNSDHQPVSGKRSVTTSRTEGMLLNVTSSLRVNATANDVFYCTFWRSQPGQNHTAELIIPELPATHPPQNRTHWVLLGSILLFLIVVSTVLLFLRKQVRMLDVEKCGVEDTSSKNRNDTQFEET

[6] = molecular target: mPD-L1 D49R mCherry (mouse, UniProt Q9EP73 19-290, D49R)
Sequence of mPD-L1 D49R mCherry (Q9EP73 19-290 D49R): as the sequence (Q9EP73 19-290 G119D) above, with D31R, D101G counted along it

[7] = molecular target: mPD-L1 K124A mCherry (mouse, UniProt Q9EP73 19-290, K124A)
Sequence of mPD-L1 K124A mCherry (Q9EP73 19-290 K124A): as the sequence (Q9EP73 19-290 G119D) above, with D101G, K106A counted along it

[8] = molecular target: D28R (Mus musculus)
Sequence of D28R (Mus musculus) (chain, as listed by the source D28R): as the sequence (Q9EP73 19-290 G119D) above, with D8R, D101G counted along it

[9] = molecular target: mPD-L1 Y123R mCherry (mouse, UniProt Q9EP73 19-290, Y123R)
Sequence of mPD-L1 Y123R mCherry (Q9EP73 19-290 Y123R): as the sequence (Q9EP73 19-290 G119D) above, with D101G, Y105R counted along it

[10] = molecular target: mPD-L1 D122A mCherry (mouse, UniProt Q9EP73 19-290, D122A)
Sequence of mPD-L1 D122A mCherry (Q9EP73 19-290 D122A): as the sequence (Q9EP73 19-290 G119D) above, with D101G, D104A counted along it

Sequence of mPD-L1 R125A mCherry (Q9EP73 19-290 R125A): as the sequence (Q9EP73 19-290 G119D) above, with D101G, R107A counted along it
Sequence of WT mPD-L1 mCherry (Q9EP73 19-290): as the sequence (Q9EP73 19-290 G119D) above, with D101G counted along it
Sequence of mPD-L1 Y56A mCherry (Q9EP73 19-290 Y56A): as the sequence (Q9EP73 19-290 G119D) above, with Y38A, D101G counted along it
Sequence of mPD-L1 G120D mCherry (Q9EP73 19-290 G120D): as the sequence (Q9EP73 19-290 G119D) above, with D101G, G102D counted along it

EC50 [1]: 1.8 nM
EC50 [2]: 2.5 nM
EC50 [3]: 1.9 nM
EC50 [4]: 38.8 nM
EC50 [5]: 2 nM
EC50 [6]: 1.8 nM
EC50 [7]: 42.9 nM
B1: mPD-1 mIgG2a (Fc fusion)
chain: LEVPNGPWRSLTFYPAWLTVSEGANATFTCSLSNWSEDLMLNWNRLSPSNQTEKQAAFCNGLSQPVQDARFQIIQLPNRHDFHMNILDTRRNDSGIYLCGAISLHPKAKIEESPGAELVVTERILETSTRYPSPSPKPEGRFQGM

EC50 [8]: 2.6 nM
B2: mPD-1 mIgG2a (Fc fusion)
chain: B1 chain
modifications: Cell-surface full-length mPD-L1 with a C-terminal mCherry (left out); limits are not given, so the mature chain 19-290 is used. The paper prints D28R, but residue 28 of Q9EP73 is Tyr. The only nearby Asp is D26, which lies at the PD-1 interface, so D28R is read as D26R. The paper's other PD-L1 numbers match the precursor numbering.

EC50 [9]: 7.7 nM
EC50 [4]: 20.2 nM
EC50 [10]: 68.2 nM
EC50 [7]: 54.9 nM
B3: mB7-1 mIgG2a (Fc fusion)
chain: VDEQLSKSVKDKVLLPCRYNSPHEDESEDRIYWQKHDKVVLSVIAGKLKVWPEYKNRTLYDNTTYSLIILGLVLSDRGTYSCVVQKKERGTYEVKHLALVKLSIKADFSTPNITESGNPSADTKRITCFASGGFPKPRFSWLENGRELPGINTTISQDPESELYTISSQLDFNTTRNHTIKCLIKYGDAHVSEDFTWEKPPEDPPDSKN

EC50 [8]: 18.8 nM
B4: mB7-1 mIgG2a (Fc fusion)
chain: B3 chain
modifications: Cell-surface full-length mPD-L1 with a C-terminal mCherry (left out); limits are not given, so the mature chain 19-290 is used. The paper prints D28R, but residue 28 of Q9EP73 is Tyr. The only nearby Asp is D26, which lies at the PD-1 interface, so D28R is read as D26R. The paper's other PD-L1 numbers match the precursor numbering.
